T1: B/MY04 N135R EHA2 (Influenza B virus B/Malaysia/2506/2004, UniProt P03461 374-538)
T1 chain: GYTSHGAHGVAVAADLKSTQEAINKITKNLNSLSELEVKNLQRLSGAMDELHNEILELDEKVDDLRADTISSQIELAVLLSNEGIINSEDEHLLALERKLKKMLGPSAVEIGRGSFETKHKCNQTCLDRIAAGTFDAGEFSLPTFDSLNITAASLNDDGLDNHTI

B1: M94 (antibody, V domains shown)
VH: QVQLVESGAEVKRPGASVKVACKASEYRFAASYIHWVRQAPGQGLEWMGWINLNSGDTKSSQKFQGWVTLTRDTSINTVYMEMTNLKFDDTAIYYCAKIILGGGGLDVWGQGTTVTVSS
VL: QSVLTQPRSVSGSLGQSVTISCSGTSTDVGSYEFVSWYQHHPGKAPKLIIYDVSKRPSGVPDRFSGSKSGNTASLAVSGLQSDDEADYYCSSYADTSNTWVFGGGTKLTVL
B2: C1_ID26079-156194 (antibody, V domains shown)
VH: QVQLVQSGAEVKKPGASVKVSCKASGYTFTGNYMHWVRQAPGQGLEWMGWINPDSGGTNYAQRFQGRVTMTRDTSISTAYMELSRLTSDDTAMYYCARVMLRSSGFDSWGQGTLVTVSS
VL: QSALIQPASVSGSPGQSITISCTGTSSDVGTYNLVSWYQQHPGKVPKLMIYEASERPSGVSNRFSGSKSGNTASLTISGLQAEDEADYYCCSYAGNSAWVFGGGTKLTVL
B3: 351-52 (antibody, V domains shown)
VH: QVQLAQSGAEVRKPGASVKVSCKASGYTFTDYYIHWVRQAPGQGLEWMGWINPDSGRTNYAQRFQGRVSMTSDTSISTAYMDLSRLRSDDTAVYFCAREGAHNYQHFDHWGQGTLVTVSA
VL: EIVLTQSPDTLSLSPGESATLFCRASQSVRSSYLAWYQQTPGQAPRLLIYGASSRATGIPDRFSGSGSGTDFTLTISRLEPEDFAVYYCQQFGRSSWTFGQGTKVEIK
B4: S1V2-72 (antibody, V domains shown)
VH: QVQLVQSGAELKKPGASVKVSCKASGYTFTGNYIHWMRQVPGQGLEWMGWINPRTGDTHHAQKFQGRVDMTRDTSINTAYLELTRLESDDTALYYCARCVFATSQFDPWGQGTLVTVSS
VL: QSALTQPASVSGSPGQSITISCTGTNSDIGSHNLVSWYQQHPGKAPKVMIYDDSKRPSGVSNRFSGSKSGSTASLTISGLQSEDEADYYCCSYAGSSNWVFGGGTKLTLL

Experiments:
B/MY04 N135R EHA2 [1] = target: T1, B/MY04 N135R EHA2; test: ELISA, rIgG (FIG. 13)
B/MY04 N135R EHA2 [2] = target: T1, B/MY04 N135R EHA2; test: ELISA, rIgG (FIG. 20A)

| Binder | binding result (B/MY04 N135R EHA2 [1]) | binding result (B/MY04 N135R EHA2 [2]) |
| --- | --- | --- |
| B1 | no binding | – |
| B2 | no binding | – |
| B3 | no binding | – |
| B4 | – | no binding |

Reference: patent publication US20250084152A1 (DUKE UNIVERSITY, published 2025)
